Experimental data from doi:10.1101/641969v1.

B1: PaCntM (Pseudomonas aeruginosa PAO1) (protein)
chain: MNAADESLGNVLLVGLGAVAIQVALDLRRHGAGRLGALNHPGRRSQRIAEALARGACLQLEGQGQHRWLSGNAALDVFHQDPAELRDDWQTLVLCVPADSYLDVVRGLPWERLGGVRTLLLVSAFIGANLLVRSALPAGCQATVLSLSSYYAATKVIDETQPLRALTKAVKRRVYLGSSRPDCPARETWRRVLAGSGVEVVPLATPEAAEGRNVTTYVHSPFFLGEFALARILSEQGPPGFMYKLYPEGPITPGAIGAMRRLWCELSELLRRMGAEPLNLLRFLNDDNYPVHETMLPRASIDGFAEAGAERQEYLLFVRYAALLVDPFSPADEQGRHFDFSAVPFRRVSRDEDGLWRLPRVPLEDYRKLALIVALAAHFDLAMPQARSLLASYENAVSRFIDCQGASQCHPSLYPIDSRPAADAIYRQWCSTC
B2: SaCntM (Staphylococcus aureus subsp. aureus Mu50) (protein)
chain: MSKLLMIGTGPVAIQLANICYLKSDYEIDMVGRASTSEKSKRLYQAYKKEKQFEVKIQNEAHQHLEGKFEINRLYKDVKNVKGEYETVVMACTADAYYDTLQQLSLETLQSVKHVILISPTFGSQMIVEQFMSKFSQDIEVISFSTYLGDTRIVDKEAPNHVLTTGVKKKLYMGSTHSNSTMCQRISALAEQLKIQLEVVESPLHAETRNSSLYVHPPLFMNDFSLKAIFEGTDVPVYVYKLFPEGPITMTLIREMRLMWKEMMAILQAFRVPSVNLLQFMVKENYPVRPETLDEGDIEHFEILPDILQEYLLYVRYTAILIDPFSQPDENGHYFDFSAVPFKQVYKNEQDVVQIPRMPSEDYYRTAMIQHIGKMLGIKTPMIDQFLTRYEASCQAYKDMHQDQQLSSQFNTNLFEGDKALVTKFLEINRTLS

Legend:
purified protein [1] = substrate: O=C(O)CCC(=O)C(=O)O; assay: purified protein; settings: 0.2 mM NADH, 0.2 mM yNA, pH 8, 28 °C
purified protein [2] = substrate: CC(=O)C(=O)O; assay: purified protein; type: biochemical, Staphylococcus aureus; settings: 0.2 mM NADPH, 0.2 mM xNA, pH 7, 28 °C

Protein | Km (purified protein [1]) [µM] | kcat (purified protein [1]) [s⁻¹] | Km (purified protein [2]) [µM] | kcat (purified protein [2]) [s⁻¹]
B1 | 133 ± 39 | 0.27 ± 0.02 |  | 
B2 |  |  | 51 ± 6 | 1.00 ± 0.02
